The values below come from US9611297 (THRASOS THERAPEUTICS, dated 2017).

The target in test [1] is T1, human uromodulin (human, UniProt P07911 25-614). Nature of the test: competition ELISA; biotin-uromodulin + peptide on coated light chain ROC (competitor). Here is the method:
(§1) Enzyme-linked immunosorbant assays (ELISA) were performed on the disclosed peptides. Plates were coated with the following light chain clones overnight at 4° C.: 0.05 uM BER (subtype lambda, isolated from SP2/0 cells), 0.2 uM ROC (subtype kappa, isolated from CHO cells), and 0.3 uM BEN (subtype lambda, isolated from CHO cells). The plates were washed and treated with bovine serum albumin (BSA) overnight at 4° C. For peptide plates, 10 nM biotin-uromodulin was mixed with peptide overnight at 4° C.

Test [2] addresses T1, human uromodulin. Briefly: competition ELISA; biotin-uromodulin + peptide on coated light chain BER (competitor). On the procedure: as §1
In general terms: ELISA stands for enzyme-linked immunosorbent assay.

Positions of bridges follow the written chain, without caps; N, C: chain ends. Non-standard residues stand in square brackets, D forms with d. No end group written: not given here.

B1: SEQ ID No. 47 (peptide)
peptide: [dK][dK]CQQS[dY]SIPYTC[dK][dK]
modifications: disulfide 3-13 (inferred)
notes: synthetic; disulfide bridge formed per general procedure; also called K*K*CQQSY*SIPYTCK*K*
Usually IC50 stands for the midpoint of a concentration-inhibition curve. Consider B1, for which the IC50 with human uromodulin [1] worked out at 33.5 µM; with human uromodulin [2], 32.3 µM.
